Reference: patent US20050019751A1

Target: human SR-BI with 12 vector-derived amino acids added to the carboxyl terminal (pcDNA3-SR-BI construct of Example 3) (human) (UniProt Q8WTV0)
Experiment: FACS dot plot, BHK-21 cells transiently transfected with pcDNA3-SR-BI

UniProt Q8WTV0, sequence (Q8WTV0 other isoform, or with tags, fused parts or gaps limits assumed): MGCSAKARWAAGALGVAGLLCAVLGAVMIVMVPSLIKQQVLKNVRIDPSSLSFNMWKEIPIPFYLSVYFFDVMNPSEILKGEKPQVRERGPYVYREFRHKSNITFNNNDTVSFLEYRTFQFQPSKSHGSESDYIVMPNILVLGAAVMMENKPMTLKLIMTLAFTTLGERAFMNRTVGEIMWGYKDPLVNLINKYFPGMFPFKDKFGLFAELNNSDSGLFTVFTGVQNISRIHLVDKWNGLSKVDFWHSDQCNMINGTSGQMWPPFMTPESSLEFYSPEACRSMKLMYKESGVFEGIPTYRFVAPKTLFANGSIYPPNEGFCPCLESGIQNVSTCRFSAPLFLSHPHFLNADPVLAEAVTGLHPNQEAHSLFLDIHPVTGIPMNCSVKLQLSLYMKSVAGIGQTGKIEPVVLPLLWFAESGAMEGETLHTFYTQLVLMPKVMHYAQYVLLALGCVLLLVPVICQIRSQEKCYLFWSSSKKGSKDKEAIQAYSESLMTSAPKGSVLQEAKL

HCV E2 recombinant protein, genotype 1a (strain H), amino acids 384-661 of the HCV polyprotein with C-terminal 6 His tag (from UniProt P27958 384-661) (ligand)
percent of transfected cells that bind E2: 10%
